Reference: patent US20170218430

System: methylarginine peptide (SEQ ID NO:1)

Row | Substance | demethylation of the peptide, read as gain of anti-RG signal on slot blot (6 hours, 30 C) | demethylation of the peptide, read as loss of anti-mRG signal on slot blot (20 hours, 22.5 C)
1 | TbJmJ1 fusion protein (MBP-JmJ1, Jumonji Fusion Protein 1) | giving a positive reaction with anti-RG in a dose-dependent manner | 
2 | TbJmJ2 fusion protein (MBP-JmJ2, Jumonji Fusion Protein 2) | giving a positive reaction with anti-RG in a dose-dependent manner | indicates a concentration-dependent decrease in the methylation status of the GmRG peptide
